Test [1] addresses OdhI (Oxoglutarate dehydrogenase Inhibitor), FHA substrate of PknG (Corynebacterium glutamicum) (UniProt Q8NQJ3).
Test [2] shares this target. The source holds these as a separate data set.

UniProt Q8NQJ3, sequence (Q8NQJ3 whole entry): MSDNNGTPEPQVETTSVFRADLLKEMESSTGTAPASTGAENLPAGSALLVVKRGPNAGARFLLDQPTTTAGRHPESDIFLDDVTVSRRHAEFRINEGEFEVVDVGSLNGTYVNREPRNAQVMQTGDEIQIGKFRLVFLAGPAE

In test [1], “Ser/Thr protein kinase PknG from Corynebacterium glutamicum, full length (enzyme)” had a kinase activity ([γ-32P]ATP) of CgPknG toward OdhI (25 μM) compared with the 17-mer peptide substrate lacking an FHA domain (330 μM) of 45 fold.
On to “CgPknG deletion mutant lacking residues 1 to 129 and 434 to 822 (domain or fragment)”, for which, in test [2], the kinase activity ([γ-32P]ATP) against OdhI compared to the full-length enzyme (phosphorylation of the 17-mer peptide unaffected) amounted to 7 fold lower.
